Entries after “also recorded” stand apart in the source; their conditions may differ. Read-outs that look alike come from different tables or passages of the source. Where a SMILES comes first, the peptide text is derived from it. Where no end group is shown, it is not given here.

Series [1] has as its system intact rat ventricular cardiomyocytes. The format is cell-based. As to conditions: not told. From the text: Equivalent bioactivity of native human S100A1 protein and the 20-mer C-terminal peptide was shown by the inventors in chemically permeabilized cardiac and skeletal muscle cell preparations enabling intracellular access and regulation of RyR2 and RyR1 function. FIG. 4 depicts a similar intracellular binding pattern for rhodamine-labeled recombinant human S100A1 protein (10415 Mw) (FIG. 4A/B) and the 20-mer FITC-labeled synthetic S100A1 C-terminal peptide (2258 Mw) (FIG. 4C/D).
S100A1ct6/11 refers to the peptide D-K-D-D-P-P-Y-V-V-L-V-A-A-L-T-V-A (SEQ ID NO: 372), wherein the sequence D-K-D-D-P-P (SEQ ID NO: 354) is a hydrophilic motif and the sequence Y-V-V-L-V-A-A-L-T-V-A (SEQ ID NO: 390) are amino acids 75 to 85 of the human S100A1 protein.
FITC-labeled S100A1ct6/11 was incubated with intact rat ventricular cardiomyocytes for 15 minutes before the cells were monitored using confocal laser scanning microscopy. Endogenous S100A1 protein was stained using a conventional immunofluorescence protocol.

Series [2] concerns isolated rat ventricular cardiomyocytes. The format is cell-based.
The test system of series [3] is permeabilized cardiomyocytes. The series is described as follows: Ca2+-spark frequency in β-escin permeabilized cardiomyocytes. The format is cell-based, rabbit. As for the experimental part: Adult ventricular rabbit cardiomyocytes were isolated from four different animals as previously described (Loughrey C. M. et al., 2004, J. Physiol. 556:919-934) and permeabilized using β-escin (0.1 mg/ml). The permeabilized cells were incubated for 1 minute with rhodamine-labeled human S100A1 protein (0.1 μM) or FITC-labeled S100A1 C-terminal 20-mer peptide (0.1 μM) fused to a hydrophilic linker (amino acids 75 to 94 of human S100A1 fused to D-K-D-D-P-P (SEQ ID NO: 354)). Cells were monitored using a Bio-Rad 2000 laser scanning confocal microscope (LSCM). A striated staining pattern can be observed that resembles the ryanodine staining pattern (FIG. 4).
Isolated cardiomyocytes were perfused with a mock intracellular solution and permeabilized using β-escin (0.1 mg/ml). Fluo-3 free acid (10 μM) present in the perfusing solution was excited at 488 nm (Kr-laser) and measured at >515 nm applying epifluorescence optics of an inverted microscope with a ×60-1.2 NA water-immersion objective lens. Fluorescence was acquired in line scan mode at 2 ms line^−1; pixel dimension was 0.3 μm (512 pixels scan^−1; zoom=1.4). The scanning laser line orientated parallel with the long axis and placed approximately equidistant between the outer edge of the cell and the nucleus/nuclei, to ensure the nuclear area was not included in the scan line. To enable this trace to be converted to free calcium concentration ([Ca^2+]) a series of calibration solutions were used at the end of each Ca^2+-spark measurement period incorporating 10 mM EGTA. In all experiments concerning Ca^2+-sparks, the [Ca^2+] in the test solution was 145-160 nM. Ca^2+-sparks recorded in Fluo-3-containing solutions were quantified using an automated detection and measurement algorithm. All Ca^2+-spark measurements were made within 7-8 min of cell permeabilization. This time was standardized to minimize loss of soluble proteins. S100A1 protein or S100A1-ct peptide was applied in mock solution using a gravity-fed perfusion system. […]

Series [4] has as its system permeabilized EDL murine skeletal muscle fibers. The series is described as follows: Isometric twitch force in permeabilized skeletal muscle fibers. The format is cell-based, mouse. As for the experimental part: Muscle Fiber Preparation and Experimental Solutions. All of the animals were handled according to the guidelines of the animal care committee of the University of Heidelberg. Male BALB/c mice (3-6-months-old) were sacrificed by an overdose of carbon dioxide, and muscle fiber preparation was carried out as previously described (Fink R. H. and Stephenson D. G., 1987, Pflugers Arch. Eur. J. Physiol. 409:374-380; Makabe M. et al., 1996, Pflugers Arch. Eur. J. Physiol. 432: 717-726). Either EDL (M. ext. dig. longum) or Soleus was isolated, and a small fiber bundle containing two to four single fibers (between 80 and 150 μm in diameter and 3-4-mm-long) was dissected in paraffin oil. […] The free ion concentrations were calculated with the computer program REACT (version 2.0) from G. L. Smith (Glasgow, Scotland). […]
Muscle fibers were skinned for 5 min in skinning solution while the sarcomere length was adjusted to 2.6±0.1 μm using the diffraction pattern of a helium-neon laser. […] Maximum force was measured in the high activating solution at pCa 4.28 and 5 mM caffeine. […] Several control transients were recorded before the fiber was exposed to the S100A1 protein or the S100A1 peptide mixture (N/H/C) or the C-terminal 20-mer alone, and the experiment was repeated as outlined above. […] The correlation coefficients were calculated to determine the accuracy of the fit. […]

Series [5] concerns adult intact cardiomyocytes. Nature of the series: Calcium homeostasis in adult intact cardiomyocytes. The format is cell-based.
In series [6] the test system is skeletal muscle fibers. Nature of the series: Calcium homeostasis in intact skeletal muscle fibers. The format is cell-based.

For `CC(C)C[C@H](NC(=O)[C@H](C)NC(=O)[C@H](C)NC(=O)[C@@H](NC(=O)[C@H](CC(C)C)NC(=O)[C@@H](NC(=O)[C@@H](NC(=O)[C@@H](N)Cc1ccc(O)cc1)C(C)C)C(C)C)C(C)C)C(=O)N[C@H](C(=O)N[C@H](C(=O)N[C@@H](C)C(=O)N[C@@H](CS)C(=O)N[C@@H](CC(N)=O)C(=O)N[C@@H](CC(N)=O)C(=O)N[C@@H](Cc1ccccc1)C(=O)N[C@@H](Cc1ccccc1)C(=O)N[C@@H](Cc1c[nH]c2ccccc12)C(=O)N[C@@H](CCC(=O)O)C(=O)N[C@@H](CC(N)=O)C(=O)N[C@@H](CO)C(=O)O)C(C)C)[C@@H](C)O` [20-mer S100A1 C-terminal peptide, YVVLVAALTVACNNFFWENS, reference compound] (H-YVVLVAALTVACNNFFWENS-OH; N-terminus and C-terminus assumed), the “ability to permeate the cell membrane of intact cardiomyocytes” value in series [1] is reported as “cell-impermeable”.
One may read the EC50 as the midpoint of the concentration-response curve. With `CC(C)C[C@H](NC(=O)[C@H](C)NC(=O)[C@H](C)NC(=O)[C@@H](NC(=O)[C@H](CC(C)C)NC(=O)[C@@H](NC(=O)[C@@H](NC(=O)[C@H](Cc1ccc(O)cc1)NC(=O)[C@@H]1CCCN1C(=O)[C@@H]1CCCN1C(=O)[C@H](CC(=O)O)NC(=O)[C@H](CC(=O)O)NC(=O)[C@H](CCCCN)NC(=O)[C@@H](N)CC(=O)O)C(C)C)C(C)C)C(C)C)C(=O)N[C@H](C(=O)N[C@H](C(=O)N[C@@H](C)C(=O)O)C(C)C)[C@@H](C)O` [S100A1ct6/11, D-K-D-D-P-P-Y-V-V-L-V-A-A-L-T-V-A] (H-DKDDPPYVVLVAALTVA-OH; N-terminus and C-terminus assumed), the “ability to permeate the cell membrane of intact cardiomyocytes” value in series [1] is listed as “cell permeable”. This molecule had a concentration giving a half-maximal response (EC50) in series [2] of 87 ± 6 nM.
For “S100A1 C-terminal 20-mer peptide fused to a hydrophilic linker: amino acids 75 to 94 of human S100A1 fused to D-K-D-D-P-P (SEQ ID NO: 354) (YVVLVAALTVACNNFFWENS; also: fused to hydrophilic linker D-K-D-D-P-P, end not given here; UniProt P23297 75-94, looked up, fragment) [reference compound]”, the “diastolic calcium spark frequency” value in series [3] is recorded as “decrease calcium spark frequency”.

B1: S100A1 protein: native human S100A1 protein, 94 amino acids, SEQ ID NO: 1 (protein, listed as Homo sapiens)
chain: MGSELETAMETLINVFHAHSGKEGDKYKLSKKELKELLQTELSGFLDAQKDVDAVDKVMKELDENGDGEVDFQEYVVLVAALTVACNNFFWENS
As for B1, the isometric twitch force entry is given as “enhances; also recorded: equivalent biological potency to enhance isometric force” in series [4] and “has a potency to enhance isometric twitch force” in series [4] (listed as full-length S100A1 protein). Besides, the calcium homeostasis result in series [5] and in series [6] was “does not alter” in each case. For the same molecule, the RyR2 activity entry in series [3] is given as “decreases”. Besides, the “diastolic calcium spark frequency” value in series [3] was “decrease calcium spark frequency; also recorded: decreases”.

Source of the values: US9428564B2, “Muscle function enhancing peptide” (Universitatsklinikum Heidelberg, priority 2009, dated 2016).
